The values that follow come from publication PMC10279719 (Nature Communications, 2023).

Sequences and labels used below:
T1: PEAK2^IDR1 (residues 802-1406), from insect cells, phosphorylated by Src (human, UniProt Q86YV5 802-1406, phosphorylated with Src kinase, sites not stated; phosphorylation of the tandem site 14-3-3 motif (RAASSP) found by proteomic analysis; biotin (EZ-Link NHS-PEG4-Biotin, 1:1 molar ratio))
T1 construct: human PEAK2 (SgK223, PRAG1), UniProt Q86YV5, residues 802-1406; also called PEAK2-IDR1 (+ Src phosphorylation); source: Sf21 insect cells, purified; phosphorylated in vitro with recombinant Src kinase domain
T1 sequence (looked up): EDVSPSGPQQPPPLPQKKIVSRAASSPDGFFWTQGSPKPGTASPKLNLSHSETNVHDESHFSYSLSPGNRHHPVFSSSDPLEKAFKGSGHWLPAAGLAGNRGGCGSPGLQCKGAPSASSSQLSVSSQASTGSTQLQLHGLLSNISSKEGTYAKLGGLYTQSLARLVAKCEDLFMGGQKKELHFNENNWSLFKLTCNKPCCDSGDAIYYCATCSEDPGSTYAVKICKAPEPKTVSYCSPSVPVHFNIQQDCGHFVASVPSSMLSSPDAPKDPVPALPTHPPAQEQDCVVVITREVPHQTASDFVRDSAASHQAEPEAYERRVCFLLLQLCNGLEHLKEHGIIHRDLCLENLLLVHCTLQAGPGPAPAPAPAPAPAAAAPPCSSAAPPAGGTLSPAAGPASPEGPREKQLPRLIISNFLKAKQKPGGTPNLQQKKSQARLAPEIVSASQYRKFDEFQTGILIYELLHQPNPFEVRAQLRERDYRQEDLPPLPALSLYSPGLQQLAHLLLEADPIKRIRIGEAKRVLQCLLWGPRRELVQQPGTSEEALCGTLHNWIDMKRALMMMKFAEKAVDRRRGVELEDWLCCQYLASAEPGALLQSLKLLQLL

T2: PEAK1^IDR1 (residues 1082-1746), from insect cells, phosphorylated by Src (human, UniProt Q9H792 1082-1746, phosphotyrosine at Y1107 (by Src in vitro, shown by MS/MS); other Src sites not stated; biotin (EZ-Link NHS-PEG4-Biotin, 1:1 molar ratio))
T2 construct: human PEAK1, UniProt Q9H792, residues 1082-1746; also called PEAK1-IDR1 (+ Src phosphorylation); source: Sf21 insect cells, purified; phosphorylated in vitro with recombinant Src kinase domain
T2 sequence (looked up): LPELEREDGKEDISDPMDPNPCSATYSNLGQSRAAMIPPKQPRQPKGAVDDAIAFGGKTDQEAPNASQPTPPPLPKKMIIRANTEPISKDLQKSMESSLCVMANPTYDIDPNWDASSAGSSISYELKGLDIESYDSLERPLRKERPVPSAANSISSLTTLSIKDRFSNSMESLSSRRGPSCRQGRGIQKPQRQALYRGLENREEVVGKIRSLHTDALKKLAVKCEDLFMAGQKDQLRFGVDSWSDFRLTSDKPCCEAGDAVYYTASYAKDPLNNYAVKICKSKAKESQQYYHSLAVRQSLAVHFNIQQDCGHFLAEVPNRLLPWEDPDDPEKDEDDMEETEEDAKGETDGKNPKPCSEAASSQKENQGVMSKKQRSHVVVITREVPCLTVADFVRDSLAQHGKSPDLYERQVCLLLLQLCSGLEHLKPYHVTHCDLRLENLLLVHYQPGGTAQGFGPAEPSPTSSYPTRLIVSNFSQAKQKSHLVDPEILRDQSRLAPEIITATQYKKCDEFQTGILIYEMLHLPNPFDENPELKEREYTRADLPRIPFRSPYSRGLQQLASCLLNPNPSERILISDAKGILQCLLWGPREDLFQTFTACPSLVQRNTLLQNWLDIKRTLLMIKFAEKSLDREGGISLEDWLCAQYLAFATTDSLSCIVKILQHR

B1: PEAK SH2-pY consensus peptide (Ac-T(pY)SNLGQ-NH2) (peptide)
peptide: Ac-T[pY]SNLGQ-NH2
notes: also called consensus pY peptide; SH2-pY peptide; source: synthetic peptide, bought: Mimotopes (95% purity)
B2: CrkII SH2 domain (CrkIISH2) (domain or fragment, human, UniProt P46108-1 6-120, looked up)
chain: DSEERSSWYWGRLSRQEAVALLQGQRHGVFLVRDSSTSPGDYVLSVSENSRVSHYIINSSGPRPPVPPSPAQPPPGVSPSRLRIGDQEFDSLPALLEFYKIHYLDTTTLIEPVSR
modifications: biotin (EZ-Link NHS-PEG4-Biotin) in the SPR experiment only
notes: CrkII, human, UniProt P46108-1, residues 6-120; Purifies as monomer with a proportion of dimer
B3: CrkII SH2 domain (CrkII^SH2, residues 6–120) (domain or fragment, human, UniProt P46108-1 6-120, looked up)
chain: B2 chain
modifications: biotin (EZ-Link NHS-PEG4-Biotin) where immobilised for SPR
notes: human CrkII residues 6-120, SH2 domain
B4: PEAK1 1106-1121-pY1107 peptide (Ac-T(pY)SNLGQSRAAMIPPK-NH2) (peptide)
peptide: Ac-T[pY]SNLGQSRAAMIPPK-NH2
notes: human PEAK1 residues 1106-1121; source: synthetic peptide, bought: Mimotopes (95% purity)
B5: PEAK2 809-821 proline-rich motif peptide (Ac-QPPPLPQKKIVSR-NH2) (peptide)
peptide: Ac-QPPPLPQKKIVSR-NH2
notes: human PEAK2 (SgK223, PRAG1) residues 809-821; source: synthetic peptide, bought: Mimotopes (95% purity)
B6: PEAK1^IDR1 (human PEAK1 residues 1082–1746) (domain or fragment, UniProt Q9H792 1082-1746, looked up)
chain: T2 sequence (looked up)
modifications: biotin (EZ-Link NHS-PEG4-Biotin) where immobilised for SPR; no phosphorylation observed at the tandem 14-3-3 motif
notes: human PEAK1 residues 1082-1746 (part of the IDR with Y1107 and the tandem site, SHED and PsK domains); the His tag is TEV-cleavable; also called PEAK1^IDR1 dimer; not shown: His tag, N-terminal, kept
B7: CrkII SH2-NSH3 construct lacking the CSH3 domain (CrkIIΔCSH3) (domain or fragment, human, UniProt P46108-1 1-228, looked up)
chain: MAGNFDSEERSSWYWGRLSRQEAVALLQGQRHGVFLVRDSSTSPGDYVLSVSENSRVSHYIINSSGPRPPVPPSPAQPPPGVSPSRLRIGDQEFDSLPALLEFYKIHYLDTTTLIEPVSRSRQGSGVILRQEEAEYVRALFDFNGNDEEDLPFKKGDILRIRDKPEEQWWNAEDSEGKRGMIPVPYVEKYRPASASVSALIGGNQEGSHPQPLGGPEPGPYAQPSVNT
notes: CrkII, human, residues 1-228
B8: CrkII^∆CSH3 (SH2-NSH3, residues 1–228) (domain or fragment, human, UniProt P46108-1 1-228, looked up)
chain: B7 chain
notes: human CrkII residues 1-228, lacking the CSH3 domain
B9: full length CrkII, monomer (CrkII^FL monomer) (natural protein, human, UniProt P46108-1 1-304, looked up)
chain: MAGNFDSEERSSWYWGRLSRQEAVALLQGQRHGVFLVRDSSTSPGDYVLSVSENSRVSHYIINSSGPRPPVPPSPAQPPPGVSPSRLRIGDQEFDSLPALLEFYKIHYLDTTTLIEPVSRSRQGSGVILRQEEAEYVRALFDFNGNDEEDLPFKKGDILRIRDKPEEQWWNAEDSEGKRGMIPVPYVEKYRPASASVSALIGGNQEGSHPQPLGGPEPGPYAQPSVNTPLPNLQNGPIYARVIQKRVPNAYDKTALALEVGELVKVTKINVSGQWEGECNGKRGHFPFTHVRLLDQQNPDEDFS
modifications: biotin (EZ-Link NHS-PEG4-Biotin, 1:1 molar ratio) where it was immobilised (a1)
notes: full length human CrkII, printed as UniProt P46108-1, residues 1-330
B10: full length CrkII, dimer (CrkII^FL dimer) (natural protein, human, UniProt P46108-1 1-304, looked up)
chain: B9 chain
modifications: biotin (EZ-Link NHS-PEG4-Biotin, 1:1 molar ratio) where it was immobilised (a1)
notes: as for B9
B11: PEAK1 1150-1162 proline-rich motif peptide (Ac-PTPPPLPKKMIIR-NH2) (peptide)
peptide: Ac-PTPPPLPKKMIIR-NH2
notes: source: synthetic peptide, bought: Mimotopes (95% purity)

The target in data set [1] is T3, CrkII SH2 domain (CrkII^SH2, residues 6-120) (human, UniProt P46108-1 6-120, biotin (EZ-Link NHS-PEG4-Biotin, 1:1 molar ratio) where it was immobilised (a1)).
T3 construct: human CrkII SH2 domain, UniProt P46108-1, residues 6-120; The His tag is TEV-cleavable and was cleaved 'when required'
Put plainly: SPR; biotinylated adapter proteins captured with a biotin CAPture kit, pY peptides as analytes; Biacore 8K+, 20 °C, HBS-TP (20 mM HEPES pH 7.4, 150 mM NaCl, 1 mM TCEP, 0.005% Tween-P20) with 2% DMSO; 1 M NaCl regeneration; steady state, 1:1 model. The conditions noted are these: both partners purified. On the technique in general: Surface plasmon resonance follows binding to a sensor surface in real time, without labels.

For data set [2], the target named is B9. The data set is described as above. The conditions noted are these: both partners purified.
For data set [3], the target named is B10. Described as above. The conditions noted are these: both partners purified.
Data set [4] concerns the molecule itself. Put plainly: SEC; S75 16/600 profile of the purified CrkII constructs, with SDS-PAGE of fractions.
Data set [5] concerns the molecule itself. Kind of data set: SEC; single purified proteins on Superdex 200 (purification and re-runs), 20 mM HEPES pH 7.5–8.5, 150 mM NaCl, 1 mM TCEP; oligomeric state. Background: In gel filtration, larger molecules generally elute earlier.
Data set [6] has as its target T4, CrkII N-terminal SH3 domain (CrkII^NSH3, residues 134-191) (human, UniProt P46108-1 134-191).
T4 construct: human CrkII NSH3 domain, UniProt P46108-1, residues 134-191; Amine coupled to a CM5 chip in a2; analyte in a4; in the syringe in ITC
Put plainly: SPR; CrkII NSH3 amine coupled to a CM5 chip, PRM peptides as analytes (100 µM-100 nM); Biacore S200, 20 °C, HBS-TP; steady state, 1:1 model. The conditions noted are these: both partners purified.

Data set [7] has as its target T1, PEAK2^IDR1 (residues 802-1406), from …. Put plainly: SPR; biotinylated PEAK proteins (with or without Src phosphorylation) captured with a biotin CAPture kit; Grb2 FL, Grb2 SH2, CrkII SH2, CrkII FL monomer or dimer as analytes; Biacore 8K+, 20 °C, HBS-TP with NaCl raised to 500 mM; 1 M NaCl regeneration; steady state. The conditions noted are these: both partners purified.

In data set [8] the target is T2, PEAK1^IDR1 (residues 1082-1746), from …. The description is as above. The conditions noted are these: both partners purified.

Non-standard residues stand in square brackets, D forms with d. pY = N[C@@H](Cc1ccc(OP(=O)(O)O)cc1)C(=O)O

Usually Kd stands for the free concentration of one partner at which half of the binding sites on the other are occupied at equilibrium, for simple one-to-one binding. For B1, the dissociation constant Kd in data set [1] was 8800 nM; in data set [2] it was 14500 nM; in data set [3], 12700 nM. Consider B2, for which, in data set [4], the binding result is recorded as “binds”. For B3, the binding result in data set [5] was “binds”. Take B4: the Kd in data set [1] worked out at 3200 nM; in data set [2], 3500 nM; in data set [3] it was 3100 nM. As for B5, the Kd in data set [6] stood at 2400 nM. Regarding B6, in data set [5], the binding result is recorded as “binds”. As to B7, in data set [4], the binding result was “binds”. Consider B8, for which the binding result in data set [5] is “binds”. For B9, the equilibrium dissociation constant (Kd) was determined as 2120 nM in data set [7] and 1500 nM in data set [8]. B10: the Kd worked out at 1380 nM in data set [7] and 1490 nM in data set [8]. For the molecule B11, binding in data set [6] was put at a Kd of 900 nM.
